doi:10.1101/2021.05.10.443506

Tests used:
[1] = molecular target: mCherry-Nup153-IDR-NLS-LacI; test: LacO array recruitment
[2] = molecular target: mCherry-Med1-IDR-NLS-LacI; test: LacO array recruitment
Chain of mCherry-Med1-IDR-NLS-LacI (Q15648 whole entry): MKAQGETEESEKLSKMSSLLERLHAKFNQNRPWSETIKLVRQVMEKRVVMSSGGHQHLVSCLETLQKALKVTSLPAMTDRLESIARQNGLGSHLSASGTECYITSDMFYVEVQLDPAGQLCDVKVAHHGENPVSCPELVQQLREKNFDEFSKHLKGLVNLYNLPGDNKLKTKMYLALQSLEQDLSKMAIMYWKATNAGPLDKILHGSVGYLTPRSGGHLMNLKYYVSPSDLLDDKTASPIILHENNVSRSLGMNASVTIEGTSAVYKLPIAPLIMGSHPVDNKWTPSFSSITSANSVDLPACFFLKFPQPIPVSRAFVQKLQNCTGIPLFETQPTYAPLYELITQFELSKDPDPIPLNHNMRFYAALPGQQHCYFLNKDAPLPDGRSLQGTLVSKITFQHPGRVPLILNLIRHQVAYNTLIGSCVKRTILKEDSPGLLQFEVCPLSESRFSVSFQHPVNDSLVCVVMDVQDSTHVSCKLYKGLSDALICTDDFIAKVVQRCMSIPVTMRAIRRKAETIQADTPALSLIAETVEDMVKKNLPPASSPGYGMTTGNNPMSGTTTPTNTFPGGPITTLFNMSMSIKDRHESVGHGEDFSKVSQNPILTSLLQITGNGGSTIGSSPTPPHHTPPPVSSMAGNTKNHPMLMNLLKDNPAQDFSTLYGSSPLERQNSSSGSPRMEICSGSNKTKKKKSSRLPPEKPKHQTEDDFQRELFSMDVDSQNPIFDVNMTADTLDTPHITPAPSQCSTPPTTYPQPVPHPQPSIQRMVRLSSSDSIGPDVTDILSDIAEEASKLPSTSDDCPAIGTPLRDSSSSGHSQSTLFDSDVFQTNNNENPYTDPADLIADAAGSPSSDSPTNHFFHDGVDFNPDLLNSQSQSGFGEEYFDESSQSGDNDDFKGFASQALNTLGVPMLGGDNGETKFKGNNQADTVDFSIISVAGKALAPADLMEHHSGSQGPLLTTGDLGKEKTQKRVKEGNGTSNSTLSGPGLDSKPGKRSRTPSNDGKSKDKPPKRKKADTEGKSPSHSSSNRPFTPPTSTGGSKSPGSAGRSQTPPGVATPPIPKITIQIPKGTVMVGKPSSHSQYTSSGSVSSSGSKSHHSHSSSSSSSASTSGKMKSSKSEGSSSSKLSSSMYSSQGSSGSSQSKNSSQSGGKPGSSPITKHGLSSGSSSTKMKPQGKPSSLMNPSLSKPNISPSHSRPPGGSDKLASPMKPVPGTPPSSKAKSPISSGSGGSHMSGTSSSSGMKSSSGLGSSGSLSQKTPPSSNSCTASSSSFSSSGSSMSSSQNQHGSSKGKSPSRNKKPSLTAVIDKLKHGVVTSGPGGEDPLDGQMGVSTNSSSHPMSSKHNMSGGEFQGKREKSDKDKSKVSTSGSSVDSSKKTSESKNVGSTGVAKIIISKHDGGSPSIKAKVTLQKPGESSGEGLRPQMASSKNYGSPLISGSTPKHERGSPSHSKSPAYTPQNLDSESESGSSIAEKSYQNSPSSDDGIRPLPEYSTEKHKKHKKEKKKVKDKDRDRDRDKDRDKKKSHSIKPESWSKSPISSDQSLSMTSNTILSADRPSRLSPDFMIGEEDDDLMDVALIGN

Chain of mCherry-Nup153-IDR-NLS-LacI (P49790 2-1475): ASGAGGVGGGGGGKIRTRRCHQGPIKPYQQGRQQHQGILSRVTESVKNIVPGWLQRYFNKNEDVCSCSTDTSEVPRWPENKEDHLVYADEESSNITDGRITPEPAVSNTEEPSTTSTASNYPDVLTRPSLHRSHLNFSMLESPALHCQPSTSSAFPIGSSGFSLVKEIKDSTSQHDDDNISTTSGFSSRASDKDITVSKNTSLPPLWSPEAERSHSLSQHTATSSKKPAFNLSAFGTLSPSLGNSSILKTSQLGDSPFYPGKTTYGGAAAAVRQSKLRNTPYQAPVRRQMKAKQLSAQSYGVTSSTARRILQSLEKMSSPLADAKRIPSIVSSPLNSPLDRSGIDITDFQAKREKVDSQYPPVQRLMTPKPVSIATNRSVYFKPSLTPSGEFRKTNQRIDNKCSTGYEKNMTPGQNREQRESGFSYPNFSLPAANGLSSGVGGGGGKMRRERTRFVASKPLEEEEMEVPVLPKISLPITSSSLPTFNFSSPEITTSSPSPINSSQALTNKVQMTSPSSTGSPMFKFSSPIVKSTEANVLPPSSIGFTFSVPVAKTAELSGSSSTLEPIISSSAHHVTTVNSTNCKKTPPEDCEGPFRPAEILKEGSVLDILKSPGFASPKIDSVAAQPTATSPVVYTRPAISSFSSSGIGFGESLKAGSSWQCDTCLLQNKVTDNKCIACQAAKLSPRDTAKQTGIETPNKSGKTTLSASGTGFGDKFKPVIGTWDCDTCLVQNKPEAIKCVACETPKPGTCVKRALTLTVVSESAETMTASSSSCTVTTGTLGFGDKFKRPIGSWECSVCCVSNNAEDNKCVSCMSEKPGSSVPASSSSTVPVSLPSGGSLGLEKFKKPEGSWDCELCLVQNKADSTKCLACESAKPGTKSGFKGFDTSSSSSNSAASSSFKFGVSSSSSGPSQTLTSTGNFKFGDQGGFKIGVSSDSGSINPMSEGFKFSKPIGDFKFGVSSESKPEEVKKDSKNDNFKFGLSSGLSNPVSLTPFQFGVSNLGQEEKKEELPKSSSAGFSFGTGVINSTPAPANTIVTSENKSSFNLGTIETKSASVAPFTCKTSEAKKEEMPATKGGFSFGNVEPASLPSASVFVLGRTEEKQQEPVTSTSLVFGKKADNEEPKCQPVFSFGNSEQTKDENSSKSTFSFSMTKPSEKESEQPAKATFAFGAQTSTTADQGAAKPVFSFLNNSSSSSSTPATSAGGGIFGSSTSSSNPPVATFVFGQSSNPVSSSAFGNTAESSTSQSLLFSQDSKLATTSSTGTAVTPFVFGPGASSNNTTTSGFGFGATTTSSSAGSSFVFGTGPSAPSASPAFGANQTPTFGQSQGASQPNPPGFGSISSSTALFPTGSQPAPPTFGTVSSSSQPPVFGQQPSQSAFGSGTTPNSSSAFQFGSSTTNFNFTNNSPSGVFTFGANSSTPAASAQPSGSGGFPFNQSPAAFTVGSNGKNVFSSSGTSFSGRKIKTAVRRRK
Chain of EGFP-Med1-NLS (Med1 IDR fused to GFP) (domain or fragment) (Q15648 whole entry, the tested form may be a part): as the sequence (Q15648 whole entry) above

| Substance | percent of cells with colocalized GFP and mCherry signal [1] | percent of cells with colocalized GFP and mCherry signal [2] |
| --- | --- | --- |
| EGFP-Med1-NLS (Med1 IDR fused to GFP) (domain or fragment) | 13 % of cells |  |
| EGFP-PolII CTD52-NLS (domain or fragment) | 67 % of cells | 53 % of cells |
